Test results published in patent US20180094060A1 (PIERRE FABRE MEDICAMENT, published 2018).

Biological target: T1, recombinant human insulin receptor (human, UniProt P06213-2 28-944, limits assumed)
T1 construct: ELISA coating protein; also called rhIR; human IR
Experiment: direct ELISA, coated protein 1 µg/ml, hybridoma supernatant
Description: Further characterizations of 810D12 antibody were then performed using hybridoma supernatants such as rhIGF-1R or rmIGF-1R or rhIR ELISA. In all direct ELISAs, proteins of interest were immobilized (1 μg/ml) to the bottom of each well. After saturation, hybridoma supernatants were added to the wells. After a 1-hour incubation period and a washing step, a solution of goat anti-mouse IgG-HRP labelled polyclonal antibody was used for detection, prior to the addition of the TMB substrate. The reaction was stopped with a 1M H₂SO₄ solution before reading the OD with a spectrophotometer at a 450 nm wavelength.

T1 sequence (P06213 other isoform, or with tags, fused parts or gaps limits assumed): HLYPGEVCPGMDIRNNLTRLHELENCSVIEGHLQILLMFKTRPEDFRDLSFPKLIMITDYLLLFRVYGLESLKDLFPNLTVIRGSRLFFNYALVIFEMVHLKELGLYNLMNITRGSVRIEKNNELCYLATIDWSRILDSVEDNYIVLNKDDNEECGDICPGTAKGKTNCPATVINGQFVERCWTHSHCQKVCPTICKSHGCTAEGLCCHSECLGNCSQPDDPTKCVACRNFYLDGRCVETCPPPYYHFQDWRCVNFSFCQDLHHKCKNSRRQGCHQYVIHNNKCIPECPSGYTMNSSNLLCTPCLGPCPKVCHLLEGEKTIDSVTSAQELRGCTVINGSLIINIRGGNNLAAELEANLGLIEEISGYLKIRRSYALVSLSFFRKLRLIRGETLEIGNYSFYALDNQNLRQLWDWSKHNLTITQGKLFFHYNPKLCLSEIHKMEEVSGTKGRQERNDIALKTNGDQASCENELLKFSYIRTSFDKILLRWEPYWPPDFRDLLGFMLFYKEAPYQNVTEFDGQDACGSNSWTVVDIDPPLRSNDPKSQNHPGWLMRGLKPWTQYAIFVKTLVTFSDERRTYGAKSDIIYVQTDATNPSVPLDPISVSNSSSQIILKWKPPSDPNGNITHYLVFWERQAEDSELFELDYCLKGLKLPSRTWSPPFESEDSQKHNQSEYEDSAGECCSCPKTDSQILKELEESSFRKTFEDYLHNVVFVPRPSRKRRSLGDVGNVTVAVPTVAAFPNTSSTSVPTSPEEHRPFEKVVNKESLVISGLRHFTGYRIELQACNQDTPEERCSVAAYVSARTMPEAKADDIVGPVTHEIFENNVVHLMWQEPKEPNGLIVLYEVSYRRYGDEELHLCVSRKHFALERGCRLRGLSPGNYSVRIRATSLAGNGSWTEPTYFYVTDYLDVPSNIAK

B1: 810D12 monoclonal antibody (secreted by hybridoma CNCM I-4893) (antibody, V domains shown)
VH: EVQLQQSGPELVKPGASVKMSCKASGHTFTSYMLHWVKQKPGQGLEWLGFINPYNDVTKYNENFKGKATLTSDKSSSTAYMELNSLTSEDSAVYFCVTTAYYGNGRYFDVWGAGTTVTVSS
VL: DIQMTQTTSSLSASLGDRVTISCRASQDITNYLTWYQQKPDGTVKVLIYYTSRLYSGVPSRFSGSGSGSDYSLTINNLEQEDIATYFCQQGYSLPWTFGGGTKLEIK
notes: Murine monoclonal antibody from a Balb/C hybridoma; The ELISAs used hybridoma supernatant; also called 810D12 antibody; 810D12I-4893
- binding result: no binding (tested: 5 µg/ml)
